Reference: US20190218553, “VON WILLEBRAND FACTOR (VWF)-TARGETING AGENTS AND METHODS OF USING THE SAME” (DUKE UNIVERSITY, published 2019)

Legend:
[1] = target: T1, von Willebrand factor (VWF) (Homo sapiens, UniProt P04275 P04275:764-2813); assay: filter; Bmax 54%; 2 mM CaCl2, 37 C; conditions: tags: factor VIII free, Haematologic Technologies Inc; label: 5'-32P
Method: (§1) Affinity constants (Kd values) were determined using double-filter nitrocellulose filter binding assays (Rusconi et al, Thromb. Haemost. $4:841-848 (2000)). All binding studies were performed in binding buffer F (20 mM HEPES, pH 7.4, 150 mM NaCl, 2 mM CaCl₂, and 0.01% BSA) at 37° C. Human purified VWF (factor VIII free) was purchased from Haematologic Technologies Inc. (Essex Junction, Vt.) and used in the double-filter nitrocellulose filter binding assay to determine the Kd of the aptamers. Briefly, RNA were end-labeled at the 5′ end with T4 polynucleotide kinase (New England Biolabs, Beverly, Mass.) and [γ³²P] ATP (Amersham Pharmacia Biotech, Piscataway, N.J.) (Fitzwater and Polisky, Methods Enzymol. 267:275-301 (1996)). End-labeled RNA was diluted in binding buffer F, heat denatured at 65° C. for 5 minutes, and subsequently equilibrated at 37° C. Direct binding was performed by incubating trace ³²P-RNA with varying concentrations of VWF protein in binding buffer F at 37° C. for 5 min. The fraction of the nucleic acid-protein complex which bound to the nitrocellulose membrane was quantified with a phosphorimager (Molecular Dynamics, Sunnyvale, Calif.). Non-specific binding of the radiolabeled nucleic acid was subtracted out of the binding such that only specific binding remained (Wong and Lohman, Proc. Natl. Acad. Sci. USA 90:5428-5432 (1993)).

[2] = target: T1, von Willebrand factor (VWF); assay: filter; Bmax 67%; 2 mM CaCl2, 37 C; conditions: tags: factor VIII free, Haematologic Technologies Inc; label: 5'-32P
Method: as §1

[3] = target: T1, von Willebrand factor (VWF); assay: filter; Bmax 81%; 2 mM CaCl2, 37 C; conditions: tags: factor VIII free, Haematologic Technologies Inc; label: 5'-32P
Method: as §1

[4] = target: T1, von Willebrand factor (VWF); assay: filter; NB; loop CAGA mutated; 2 mM CaCl2, 37 C; conditions: tags: factor VIII free, Haematologic Technologies Inc; label: 5'-32P
Method: as §1

[5] = target: T1, von Willebrand factor (VWF); assay: filter; Bmax 86%; 2 mM CaCl2, 37 C; conditions: Haematologic Technologies Inc, label: 5'-32P
Method: as §1

[6] = target: T1, von Willebrand factor (VWF); assay: filter; Bmax 80%; 2 mM CaCl2, 37 C; conditions: Haematologic Technologies Inc, label: 5'-32P
Method: as §1

[7] = target: T1, von Willebrand factor (VWF); assay: filter; Bmax 87%; 2 mM CaCl2, 37 C; conditions: Haematologic Technologies Inc, label: 5'-32P
Method: as §1

[8] = target: T1, von Willebrand factor (VWF); assay: filter; Bmax 82%; 2 mM CaCl2, 37 C; conditions: tags: factor VIII free, Haematologic Technologies Inc; label: 5'-32P
Method: as §1

[9] = target: T1, von Willebrand factor (VWF); assay: filter; Bmax 58%; 2 mM CaCl2, 37 C; conditions: tags: factor VIII free, Haematologic Technologies Inc; label: 5'-32P
Method: as §1

[10] = target: T1, von Willebrand factor (VWF); assay: filter; Bmax 88%; 2 mM CaCl2, 37 C; conditions: Haematologic Technologies Inc, label: 5'-32P
Method: as §1

[11] = tags: factor VIII free human purified VWF

B1: T25 (ssRNA)
RNA: ACGAACUGCCCUCAGCUACUUUCAUGUUGCUGACGCACAGACGU
modifications: 2'-F C and U; 2'-OH A and G; 3' idT
Kd [1]: 13.4 nM

B2: T25 vrt14 (ssRNA)
RNA: ACGAACUGCCCUCAGCUACUUUCAUGUUGCUGACGCACAGACGU
modifications: mAfCrGrArAfCfUrGfCfCfCfUfCrArGfCfUrAfCfUfUfUfCrAfUrGfUfUrGfCfUrGrAfCrGfCrAfCrArGrAfCrGmU-idT
Kd [1]: 9.2 nM

B3: T25 vrt6 (ssRNA)
RNA: ACGAACUGCCCUCAGCUACUUUCAUGUUGCUGACGCACAGACGU
modifications: rAfCrGmAmAmCfUrGfCfCfCfUfCrArGfCfUrAfCfUfUfUfCrAfUrGfUfUrGfCfUrGrAfCrGfCrAmCmAmGmAfCrGfU-idT
Kd [2]: 3.1 nM

B4: T59 vrt14 (ssRNA)
RNA: ACGAACUGCCCUCGAUCGACGCACAGACGU
modifications: mAmCmGmAmAmCfUrGfCfCfCmUmCmGmAmUmCmGmAfCrGfCrAmCmAmGmAmCmGfU-idT
Kd [3]: 1.7 nM

B5: T98 (ssRNA)
RNA: ACGAACUGCCCUCUUUCAUGACGCACCCCCGU
modifications: 2'-F C and U; 2'-OH A and G; 3' idT
binding result [4]: no binding

B6: T87 (ssRNA)
RNA: ACGAACUGCCCUCUUUCAUGACGCACAGACGU
modifications: 2'-F C and U; 2'-OH A and G; 3' idT
Kd ([5]; tags: factor VIII free): 11 nM

B7: T101 (ssRNA)
RNA: ACGAACUGCCCUCUUUUUUGACGCACCCCCGU
modifications: 2'-F C and U; 2'-OH A and G; 3' idT
binding result [4]: no binding

B8: T11 (ssRNA)
RNA: GGGAGGACGAACUGCCCUCAGCUACUUUCAUGUUGCUGACGCACAGACGACUCGCUG
modifications: 2'-F C and U; 2'-OH A and G
Kd [1]: 16.5 nM

B9: DTRI-006 (ssRNA)
RNA: ACGAACUGCCCUCGAUCGACGCACAGACGU
modifications: mAmCmGmAmAmCmUmGfCfCfCmUmCmGmAmUmCmGmAfCrGfCmAmCmAmGmAmCmGfUidT
Kd ([6]; tags: factor VIII free): 7 nM

B10: T59 vrt25 (ssRNA)
RNA: ACGAACUGCCCUCGAUCGACGCACAGACGU
modifications: 2'-F U7,C9,C10,C11,U12,C20,C22,U30; ribo G8,A19; rest 2'-OMe; 3' idT
Kd [5, 11]: 76 nM

B11: T99 (ssRNA)
RNA: ACGAACUGCCCUCUAUUAUUUGACGCACCCCCGU
modifications: 2'-F C and U; 2'-OH A and G; 3' idT
binding result [4]: no binding

B12: T90 vrt6 (ssRNA)
RNA: ACGAACUGCCCUCUAUUAUUUGACGCACAGACGU
modifications: 2'-F C9,C10,C11,C24,G25,C26,U34; rest 2'-OMe; 3' idT
Kd [6, 11]: 46 nM

B13: T90 vrt1 (ssRNA)
RNA: ACGAACUGCCCUCUAUUAUUUGACGCACAGACGU
modifications: 2'-F C2,U7,C9,C10,C11,U12,C24,C26,C32,U34; ribo A1,G3,G8,A23,G25,A27,G33; rest 2'-OMe; 3' idT
Kd [7, 11]: 0.9 nM

B14: T90 vrt7 (ssRNA)
RNA: ACGAACUGCCCUCUAUUAUUUGACGCACAGACGU
modifications: 2'-F C9,C10,C11,C24,G25,C26; rest 2'-OMe; 3' idT
Kd [6, 11]: 42 nM

B15: T59 vrt19 (ssRNA)
RNA: ACGAACUGCCCUCGAUCGACGCACAGACGU
modifications: mAmCmGmAmAmCmUmGfCfCfCmUmCmGmAmUmCmGmAfCrGfCmAmCmAmGmAmCmGfU-idT
Kd [8]: 5.5 nM

B16: T59 vrt6 (ssRNA)
RNA: ACGAACUGCCCUCGAUCGACGCACAGACGU
modifications: mAmCmGmAmAmCfUrGfCfCfCfUmCmGmAmUmCmGrAfCrGfCrAmCmAmGmAmCmGfU-idT
Kd [8]: 0.5 nM

B17: T52 (ssRNA)
RNA: ACGAACUGCCCUCAGCAUUAUUGCUGACGCACAGACGU
modifications: 2'-F C and U; 2'-OH A and G; 3' idT
Kd [9]: 16 nM

B18: T86 (ssRNA)
RNA: ACGAACUGCCCUCGUUUCAUCGACGCACAGACGU
modifications: 2'-F C and U; 2'-OH A and G; 3' idT
Kd ([10]; tags: factor VIII free): 16 nM

B19: T86 vrt1 (ssRNA)
RNA: ACGAACUGCCCUCGUUUCAUCGACGCACAGACGU
modifications: 2'-F C2,U7,C9,C10,C11,U12,C24,C26,C32,U34; ribo A1,G3,G8,A23,G25,A27,G33; rest 2'-OMe; 3' idT
Kd [6, 11]: 0.9 nM

B20: T86 vrt4 (ssRNA)
RNA: ACGAACUGCCCUCGUUUCAUCGACGCACAGACGU
modifications: 2'-F C9,C10,C11,C24,C26; ribo G25; rest 2'-OMe; 3' idT
Kd [10, 11]: 12 nM

B21: T95 (ssRNA)
RNA: ACGAACUGCCCUCUUUUUUUUGACGCACAGACGU
modifications: 2'-F C and U; 2'-OH A and G; 3' idT
Kd [3]: 12 nM

B22: T86 vrt7 (ssRNA)
RNA: ACGAACUGCCCUCGUUUCAUCGACGCACAGACGU
modifications: 2'-F C9,C10,C11,C24,G25,C26; rest 2'-OMe; 3' idT
Kd [10, 11]: 50 nM

B23: T59 vrt2 (ssRNA)
RNA: ACGAACUGCCCUCGAUCGACGCACAGACGU
modifications: rAfCrGmAmAmCfUrGfCfCfCmUmCmGmAmUmCmGmAfCrGfCrAmCmAmGmAfCrGfU-idT
Kd ([7]; tags: factor VIII free): 5.5 nM
